Laboratory results reported in patent US20250352624A1, “SUPEROXIDE DISMUTASE AND USES THEREOF FOR PREVENTING OR TREATING DRY EYE SYNDROME” (GENOFOCUS, INC., priority 2021, published 2025).

How the values were obtained:
[1] = system: experimental dry eye (EDE)-induced C57BL/6 mouse model; test: Reactive oxygen species (DCF-DA) by flow cytometry; type: in vivo
Method: (§1) To induce experimental dry eye, 7- to 8-week-old C57BL/6 mice (purchased from Damool Science) were injected subcutaneously with scopolamine hydrochloride at 0.5 mg/0.2 ml three times a day under exposure to a ventilating device for 18 hours a day. The humidity was maintained at 30%, and the temperature was maintained at 25° C. The C57BL/6 mice were classified into 7 groups, depending on concentrations of the oral drug to be administered, as shown in Table 6.
After inducing experimental dry eye in the experimental mice, the drugs prepared in Example 3 were orally administered at 2 μL per dose once a day to the treatment groups (administered at 13:30 every day). In both eyes of all mice, at baseline, day 5, and day 10, tear volume and tear film break-up time were measured and corneal fluorescent staining score was examined. The mice were then sacrificed and tissue analysis was performed. Each group consisted of 6 animals.
The cornea, conjunctiva, and lacrimal gland were excised, sectioned with scissors, and then shaken with 0.5 mg/mL of collagenase type D (manufactured by Roche Applied Science, Indianapolis, IN, USA) at 37° C. for 60 minutes. The tissue was ground and then allowed to pass through a cell strainer, followed by centrifugation. The number of CD4+IFN-γ+T cells was calculated by performing flow cytometry with fluorescein-conjugated anti-CD4 antibody and phycoerythrin-conjugated anti-IFN-γ antibody, and the number of DCF-DA cells was calculated using the CM-H2DCFDA kit (manufactured by Thermo Fisher Scientific, Waltham, MA, USA).

[2] = system: experimental dry eye (EDE)-induced C57BL/6 mouse model; test: Inflammatory cytokines by Luminex multiplex immunobead assay; type: in vivo
Method: as §1
In both eyes of all mice, at baseline, day 5, and day 10, tear volume and tear film break-up time were measured and corneal fluorescent staining score was examined. The mice were then sacrificed and tissue analysis was performed. Each group consisted of 6 animals.
Conjunctival tissue was excised and collected from 6 eyes of 3 animals in each group, and then immersed in lysis buffer containing protease inhibitors for 30 minutes. Subsequently, the resultant was centrifuged and stored −80° C. Then, the concentrations of IFN-γ, IL-1Bβand TNF-α in the cornea and conjunctiva were analyzed using the Luminex multiplex immunobead assay.

[3] = conjunctiva, 2.5 mg/kg oral once a day
[4] = conjunctiva, 5 mg/kg oral once a day
[5] = conjunctiva, 10 mg/kg oral once a day
[6] = cornea, 2.5 mg/kg oral once a day
[7] = cornea, 5 mg/kg oral once a day
[8] = cornea, 10 mg/kg oral once a day

B1: SodA2: variant Mn-SOD of Bacillus amyloliquefaciens GF423 sodA, Asn73 and Asn136 replaced with Asp, SEQ ID NO: 4; given orally shellac-coated, mixed with dextrin (protein, listed as Bacillus amyloliquefaciens)
chain: MAYKLPELPYAYDALEPHIDKETMTIHHTKHHNTYVTNLNKAIEGSALAEKSVDELVADLNAVPEDIRTAVRDDGGGHANHSLFWTLLSPNGGGEPTGELAEEIKSTFGSFDQFKEKFAAAAAGRFGSGWAWLVVDDGKLEITSTPNQDSPLSEGKTPVLGLDVWEHAYYLNYQNRRPDYISAFWNVVNWDEVARLYSEAK
modifications: shellac coating; dextrin mixture
amount of reactive oxygen species generated [1, 3]: 55.13±7.41%
amount of reactive oxygen species generated [1, 4]: 57.63±8.16%
amount of reactive oxygen species generated [1, 5]: 53.29±1.19%
effect of decreasing generation of reactive oxygen species as compared with the CsA group ([1]; cornea, 2.5 mg/kg oral): better effect
amount of reactive oxygen species generated [1, 6]: 33.57±26.51%
amount of reactive oxygen species generated [1, 7]: 54.53±13.53%
amount of reactive oxygen species generated [1, 8]: 57.38±23.43%
amount of reactive oxygen species generated ([1]; lacrimal gland, 2.5 mg/kg oral once a day): 59.05±10.77%
amount of reactive oxygen species generated ([1]; lacrimal gland, 5 mg/kg oral once a day): 56.03±6.37%
amount of reactive oxygen species generated ([1]; lacrimal gland, 10 mg/kg oral once a day): 49.92±4.19%
IFN-γ [2, 3]: 21.27 ± 17.49 pg/mL
IL-1β [2, 3]: 21.5 ± 9.26 pg/mL
TNF-α [2, 3]: 22.6 ± 7.72 pg/mL
IFN-γ [2, 4]: 18.28 ± 11.75 pg/mL
IL-1β [2, 4]: 19.0 ± 7.17 pg/mL
TNF-α [2, 4]: 18.8 ± 11.6 pg/mL
IFN-γ [2, 5]: 15.53 ± 11.43 pg/mL
IL-1β [2, 5]: 16.3 ± 9.12 pg/mL
TNF-α [2, 5]: 22.5 ± 11.4 pg/mL
concentrations of IFN-γ, IL-1β, and TNF-α as compared with the EDE and vehicle groups ([2]; cornea and conjunctiva, CsA and oral SodA2 groups): tendency of decreased concentrations
IFN-γ [2, 6]: 10.77 ± 8.30 pg/mL
IL-1β [2, 6]: 15.45 ± 8.93 pg/mL
TNF-α [2, 6]: 22.6 ± 7.72 pg/mL
IFN-γ [2, 7]: 9.80 ± 6.11 pg/mL
IL-1β [2, 7]: 13.17 ± 2.26 pg/mL
TNF-α [2, 7]: 18.8 ± 11.6 pg/mL
IFN-γ [2, 8]: 7.89 ± 7.90 pg/mL
IL-1β [2, 8]: 8.69 ± 4.18 pg/mL
TNF-α [2, 8]: 22.5 ± 11.4 pg/mL
inflammatory cytokines as compared with CsA ([2]; oral, all doses): tended to decrease inflammatory cytokines more than CsA
